Values of other authors in paper PMC4954776.
pKd: −log10 of the molar value.

Target: BRAF kinase domain 448-723 (Homo sapiens) (UniProt P15056)
Assay: sedimentation equilibrium

Chain of BRAF kinase domain 448-723 (P15056 448-723): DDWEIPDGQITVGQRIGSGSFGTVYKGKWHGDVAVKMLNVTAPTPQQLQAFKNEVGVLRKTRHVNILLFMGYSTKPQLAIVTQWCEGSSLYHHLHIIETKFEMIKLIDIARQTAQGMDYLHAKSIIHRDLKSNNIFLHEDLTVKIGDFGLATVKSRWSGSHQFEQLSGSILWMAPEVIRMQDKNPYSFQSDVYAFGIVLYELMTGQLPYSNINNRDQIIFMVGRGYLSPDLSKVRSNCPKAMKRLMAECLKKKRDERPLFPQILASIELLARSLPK

Q: With “BRAF kinase domain 448-723 (from UniProt P15056)” as the substance, how does the pKd read?
A: > 5.20
